Test results published in US20150203577A1 (Chugai, published 2015).
Where a chain is given by its changes, count along the chain named. In names and notes the source's numbering stands.

T1: mouse FcγRII extracellular domain with C-terminal His tag (mouse, UniProt P08101 30-210)
T1 construct: Made on the basis of NCBI NP-034317.1; also called mFcγRII; mFcgRII
T1 sequence: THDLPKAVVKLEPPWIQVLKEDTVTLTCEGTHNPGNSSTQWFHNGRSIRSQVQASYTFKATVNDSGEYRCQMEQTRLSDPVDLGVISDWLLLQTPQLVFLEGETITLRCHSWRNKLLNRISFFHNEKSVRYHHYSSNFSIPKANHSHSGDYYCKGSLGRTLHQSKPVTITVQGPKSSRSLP

T2: mouse FcγRII extracellular domain, C-terminal His tag (mouse, UniProt P08101 30-210)
T2 construct: Whole entry named; also called mFcγRII; mFcgRII
T2 sequence: T1 sequence

T3: mouse FcγRIII extracellular domain, C-terminal His tag (mouse, UniProt P08508 31-215)
T3 construct: Whole entry named; also called mFcγRIII; mFcgRIII
T3 chain: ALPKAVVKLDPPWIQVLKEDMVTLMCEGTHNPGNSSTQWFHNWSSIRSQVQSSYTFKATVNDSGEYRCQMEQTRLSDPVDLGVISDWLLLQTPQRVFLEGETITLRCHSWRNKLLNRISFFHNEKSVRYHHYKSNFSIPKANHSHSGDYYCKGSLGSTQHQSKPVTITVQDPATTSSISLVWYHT

T4: mouse FcγRIII extracellular domain with C-terminal His tag (mouse, UniProt P08508 31-215)
T4 construct: Made on the basis of NCBI NP-034318.2; also called mFcγRIII; mFcgRIII
T4 chain: T3 chain

B1: H237-MB379/MRAL-k0 (antibody, mouse IgG1, kappa)
heavy: QVQLQESGPGLVKPSETLSLTCAVSGHSISHDHAWSWVRQPPGEGLEWIGFISYSGITNYNPSLQGRVTISRDNSKNTLYLQMNSLRAEDTAVYYCARSLARTTAMDYWGEGTLVTVSSAKTTPPSVYPLAPGSAAQTNSMVTLGCLVKGYFPEPVTVTWNSGSLSSGVHTFPAVLQSDLYTLSSSVTVPSSTWPSETVTCNVAHPASSTKVDKKIVPRDCGCKPCICEVYEVEDVFIFPPKPKDVLTITLTPKVTCVVVDISKDDPEVQFSWFVDDVEVHTAQTQPREEQFNSTFRSVSELPIMHQDWLNGKEFKCRVNSAAFPAPIEKTISKTKGRPKAPQVYTIPPPKEQMAKDKVSLTCMITDFFPEDITVEWQWNGQPAENYKNTQPIMDTDGSYFVYSKLNVQKSNWEAGNTFTCSVLHEGLHNHHTEKSLSHSPGK
light: not shown
notes: mIgG1 with T230E/P232Y/S238E/S239D (EU); template T5; copies: 2 + 2
B2: H237-MB373/MRAL-k0 (antibody, mouse IgG1, kappa)
heavy: B1 heavy with V230A
light: not shown
notes: mIgG1 with T230E/V231A/P232Y/S238E/S239D (EU); template T1; copies: 2 + 2
B3: H237-MB425/MRAL-k0 (antibody, mouse IgG1, kappa)
heavy: B1 heavy with E229I, V230P, Y231A
light: not shown
notes: mIgG1 with T230I/V231P/P232A/S238E/S239D (EU); template T7; copies: 2 + 2
B4: H237-MB387/MRAL-k0 (antibody, mouse IgG1, kappa)
heavy: B1 heavy with V230N
light: not shown
notes: mIgG1 with T230E/V231N/P232Y/S238E/S239D (EU); template T3; copies: 2 + 2
B5: H237-MB397/MRAL-k0 (antibody, mouse IgG1, kappa)
heavy: B1 heavy with V230T
light: not shown
notes: mIgG1 with T230E/V231T/P232Y/S238E/S239D (EU); template T4; copies: 2 + 2
B6: H237-MB382/MRAL-k0 (antibody, mouse IgG1, kappa)
heavy: B1 heavy with V230D
light: not shown
notes: mIgG1 with T230E/V231D/P232Y/S238E/S239D (EU); template T2; copies: 2 + 2
B7: H237-MB432/MRAL-k0 (antibody, mouse IgG1, kappa)
heavy: B1 heavy with E229Q, V230P, Y231N
light: not shown
notes: mIgG1 with T230Q/V231P/P232N/S238E/S239D (EU); template T9; copies: 2 + 2
B8: H237-MB389/MRAL-k0 (antibody, mouse IgG1, kappa)
heavy: B1 heavy with V230P, Y231A
light: not shown
notes: mIgG1 with T230E/V231P/P232A/S238E/S239D (EU); template T6; copies: 2 + 2
B9: H237-MB390/MRAL-k0 (antibody, mouse IgG1, kappa)
heavy: B1 heavy with V230P, Y231N
light: not shown
notes: mIgG1 with T230E/V231P/P232N/S238E/S239D (EU); template T8; copies: 2 + 2
B10: H237-MB548/MRAL-k0 (antibody, mouse IgG1, kappa)
heavy: B1 heavy with V230P, Y231N, D235M, N320D, A322D, K330R
light: not shown
notes: copies: 2 + 2
B11: H237-MB549/MRAL-k0 (antibody, mouse IgG1, kappa)
heavy: B1 heavy with V230P, Y231N, D235M, S294L, N320D, A322D, K330R
light: not shown
notes: copies: 2 + 2
B12: H237-MB524/MRAL-k0 (antibody)
heavy: B1 heavy with V230P, Y231N, D235W
light: not shown
notes: copies: 2 + 2
B13: H237-MB513/MRAL-k0 (antibody, mouse IgG1, kappa)
heavy: B1 heavy with V230P, Y231A, D235M
light: not shown
notes: copies: 2 + 2
B14: H237-MB476/MRAL-k0 (antibody, mouse IgG1, kappa)
heavy: B1 heavy with E229Q, V230P, Y231N, D235E
light: not shown
notes: mIgG1 with T230Q/V231P/P232N/S238E/S239E (EU); copies: 2 + 2
B15: H237-MB475/MRAL-k0 (antibody, mouse IgG1, kappa)
heavy: B1 heavy with V230P, Y231N, D235E
light: not shown
notes: copies: 2 + 2
B16: H237-MB474/MRAL-k0 (antibody, mouse IgG1, kappa)
heavy: B1 heavy with E229I, V230P, Y231A, D235E
light: not shown
notes: copies: 2 + 2
B17: H237-MB486/MRAL-k0 (antibody, mouse IgG1, kappa)
heavy: B1 heavy with V230P, Y231A, D235S
light: not shown
notes: copies: 2 + 2
B18: H237-MB515/MRAL-k0 (antibody, mouse IgG1, kappa)
heavy: B1 heavy with V230P, Y231N, D235M
light: not shown
notes: mIgG1 with T230E/V231P/P232N/S238E/S239M (EU); copies: 2 + 2
B19: H237-MB473/MRAL-k0 (antibody, mouse IgG1, kappa)
heavy: B1 heavy with V230P, Y231A, D235E
light: not shown
notes: copies: 2 + 2

The binders below were run against T1, mouse FcγRII extracellular domain with … (assay: SPR Biacore T200; KD mFcγRIII / KD mFcγRII).

Row | I/A (mFcγRII selectivity) | relative I/A (mFcγRII selectivity) (mIgG1 = 1) | Binder
1 | 30.2 | 22.5 | B1
2 | 33.8 | 25.2 | B2
3 | – | 35.2 | B3
4 | 25.6 | 19.1 | B4
5 | 38.7 | 28.9 | B5
6 | 35.1 | 26.2 | B6
7 | 43.1 | 32.2 | B7
8 | 47.3 | 35.3 | B8
9 | 59 | 44 | B9

Each binder was assayed against T2, mouse FcγRII extracellular domain, … (assay: SPR (Biacore T200), 1:1 fit).
Procedure: (§1) Each altered antibody was analyzed for its interaction with each Fcγ receptor prepared above using Biacore T100 (GE Healthcare Japan Corp.), Biacore T200 (GE Healthcare Japan Corp.), Biacore A100, or Biacore 4000. The running buffer used was HBS-EP+ (GE Healthcare Japan Corp.). The assay temperature was set to 25° C. The sensor chips used were chips prepared by immobilizing Protein L (ACTIGEN or BioVision) onto Series S Sensor Chip CM5 (GE Healthcare Japan Corp.) or Series S Sensor Chip CM4 (GE Healthcare Japan Corp.) by the amine coupling method.
(§2) In order to calculate the KD value of each altered antibody for FcγR, kinetic analysis was conducted according to the following method: first, the antibody of interest was captured onto any of these chips and allowed to interact with mFcγR diluted with a running buffer. For the obtained sensorgram, the assay results were globally fit into the 1:1 Langmuir binding model using Biacore Evaluation Software to calculate an association rate constant ka (L/mol/s) and a dissociation rate constant kd (1/s). From these values, the dissociation constant KD (mol/L) was calculated.

Row | Kd | Binder
10 | 0.589 nM | B10
11 | 1 nM | B11

Target: T3, mouse FcγRIII extracellular domain, …
Assay: SPR (Biacore T200), 1:1 fit
Procedure: as §1, §2

Row | Kd | Binder
12 | 71.7 nM | B10
13 | 52.1 nM | B11

Each binder was assayed against T1, mouse FcγRII extracellular domain with … (assay: SPR Biacore T200).
Procedure: as §1, §2

Row | Kd | Binder
14 | 0.768 nM | B1
15 | 0.538 nM | B2
16 | 21 nM | B12
17 | 1.08 nM | B3
18 | 0.659 nM | B4
19 | 4.53 nM | B13
20 | 0.379 nM | B5
21 | 0.655 nM | B6
22 | 0.613 nM | B7
23 | 0.858 nM | B8
24 | 0.854 nM | B14
25 | 0.979 nM | B15
26 | 4.89 nM | B16
27 | 7.47 nM | B17
28 | 0.403 nM | B9
29 | 1.27 nM | B18
30 | 3.65 nM | B19

Target: T4, mouse FcγRIII extracellular domain with …
Assay: SPR Biacore T200
Procedure: as §1, §2

Row | Kd | Binder
31 | 23.2 nM | B1
32 | 18.2 nM | B2
33 | 837 nM | B12
34 | 51 nM | B3
35 | 16.9 nM | B4
36 | 509 nM | B13
37 | 14.6 nM | B5
38 | 23 nM | B6
39 | 26.4 nM | B7
40 | 40.6 nM | B8
41 | 84 nM | B14
42 | 81.4 nM | B15
43 | 247 nM | B16
44 | 258 nM | B17
45 | 23.7 nM | B9
46 | 171 nM | B18
47 | 196 nM | B19

Target: T1, mouse FcγRII extracellular domain with …
Assay: SPR Biacore T200
Remark: another data set of the same source

Row | Kd | relative mFcγRII-binding activity (mIgG1 = 1) | Binder
48 | 0.768 nM | 273 | B1
49 | 0.538 nM | 390 | B2
50 | – | 194 | B3
51 | 0.659 nM | 319 | B4
52 | 0.379 nM | 555 | B5
53 | 0.655 nM | 321 | B6
54 | 0.613 nM | 343 | B7
55 | 0.858 nM | 245 | B8
56 | 0.403 nM | 522 | B9

Target: T4, mouse FcγRIII extracellular domain with …
Assay: SPR Biacore T200
Remark: another data set of the same source

Row | Kd | relative mFcγRIII-binding activity (mIgG1 = 1) | Binder
57 | 23.2 nM | 12.2 | B1
58 | 18.2 nM | 15.5 | B2
59 | – | 5.5 | B3
60 | 16.9 nM | 16.7 | B4
61 | 14.6 nM | 19.3 | B5
62 | 23 nM | 12.3 | B6
63 | 26.4 nM | 10.7 | B7
64 | 40.6 nM | 7 | B8
65 | 23.7 nM | 11.9 | B9

Target: T1, mouse FcγRII extracellular domain with …
Assay: SPR Biacore T200
Remark: another data set of the same source
Procedure: as §1, §2

Row | relative mFcγRII-binding activity (mIgG1 = 1) | Binder
66 | 273 | B1
67 | 390 | B2
68 | 10 | B12
69 | 194 | B3
70 | 319 | B4
71 | 46.3 | B13
72 | 555 | B5
73 | 321 | B6
74 | 343 | B7
75 | 245 | B8
76 | 246 | B14
77 | 214 | B15
78 | 42.9 | B16
79 | 28.1 | B17
80 | 522 | B9
81 | 165 | B18
82 | 57.6 | B19

Target: T4, mouse FcγRIII extracellular domain with …
Assay: SPR Biacore T200
Remark: another data set of the same source
Procedure: as §1, §2

Row | relative mFcγRIII-binding activity (mIgG1 = 1) | Binder
83 | 12.2 | B1
84 | 15.5 | B2
85 | 0.3 | B12
86 | 5.5 | B3
87 | 16.7 | B4
88 | 0.6 | B13
89 | 19.3 | B5
90 | 12.3 | B6
91 | 10.7 | B7
92 | 7 | B8
93 | 3.4 | B14
94 | 3.5 | B15
95 | 1.1 | B16
96 | 1.1 | B17
97 | 11.9 | B9
98 | 1.7 | B18
99 | 1.4 | B19

Target: T3, mouse FcγRIII extracellular domain, …
Assay: SPR (Biacore T200); KD of H237-mIgG1/MRAL-k0 / KD of variant
Procedure: as §1, §2

Row | relative mFcγRIII-binding activity (mIgG1 = 1) | Binder
100 | 3.9 fold | B10
101 | 5.4 fold | B11
